{
  "source": "paper PMC7873046",
  "about": "“Structure of the Complete Dimeric Human GDAP1 Core Domain Provides Insights into Ligand Binding and Clustering of Disease Mutations” (Frontiers in Molecular Biosciences, 2021)",
  "key": {"GDAP1∆295-358": {"biological_target": "T1, GDAP1∆295-358 (Homo sapiens, UniProt Q8TB36)", "T1 construct": "C-terminally truncated (residues 295-358 deleted), alpha-loop insertion kept; N-terminal tag cut with TEV; E. coli BL21(DE3); monomer/dimer equilibrium", "T1 sequence (Q8TB36 1-294)": "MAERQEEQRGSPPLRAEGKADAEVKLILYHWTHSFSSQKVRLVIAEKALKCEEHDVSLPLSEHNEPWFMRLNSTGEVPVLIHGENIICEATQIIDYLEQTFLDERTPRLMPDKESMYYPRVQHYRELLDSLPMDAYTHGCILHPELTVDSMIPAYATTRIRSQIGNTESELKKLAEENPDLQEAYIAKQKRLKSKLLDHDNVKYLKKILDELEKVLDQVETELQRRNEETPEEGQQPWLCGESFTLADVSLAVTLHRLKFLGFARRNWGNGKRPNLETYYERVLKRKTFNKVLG", "test": "isothermal titration calorimetry", "format": "binding", "from_the_text": "isothermal titration calorimetry on GDAP1∆295-358"}, "GDAP1∆319-358": {"biological_target": "T2, GDAP1∆319-358 (Homo sapiens, UniProt Q8TB36)", "T2 construct": "C-terminally truncated (residues 319-358 deleted; hydrophobic and transmembrane region), alpha-loop insertion kept; N-terminal tag cut with TEV; E. coli BL21(DE3); monomer/dimer equilibrium", "T2 sequence (Q8TB36 1-318)": "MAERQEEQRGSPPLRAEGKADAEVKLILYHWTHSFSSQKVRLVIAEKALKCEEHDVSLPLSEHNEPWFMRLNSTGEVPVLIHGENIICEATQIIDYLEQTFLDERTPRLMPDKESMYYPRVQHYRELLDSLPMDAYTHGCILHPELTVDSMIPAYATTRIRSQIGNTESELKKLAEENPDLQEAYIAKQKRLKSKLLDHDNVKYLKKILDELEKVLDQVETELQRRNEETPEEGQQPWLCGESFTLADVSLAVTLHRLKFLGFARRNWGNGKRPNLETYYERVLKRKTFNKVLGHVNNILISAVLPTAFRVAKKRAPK", "test": "differential scanning fluorimetry (SYPRO Orange)", "format": "binding", "details": "pH 7.5, 300 mM NaCl, 2% DMSO; HA titrated up to 250 µM"}, "[1]": {"biological_target": "the molecule itself", "test": "non-reducing SDS-PAGE; SEC eluates of purified proteins on a non-reducing gel (GDAP1L1 also on a reducing gel); shows the covalent (disulfide) dimer"}, "[2]": {"biological_target": "the molecule itself", "test": "SEC-MALS; Superdex 75 10/300 GL increase in SEC buffer (25 mM HEPES pH 7.5, 300 mM NaCl); protein 1-10 mg/ml, 15-150 µg injected"}, "[3]": {"biological_target": "the molecule itself", "test": "SEC-SAXS; 50 µL of protein at 8.5-10 mg/ml injected into BioSEC3-300 or Superdex 75 10/300 GL increase; 25 mM HEPES pH 7.5, 300 mM NaCl; +15 °C; GDAP1∆295-358 and GDAP1∆319-358 also with hexadecanedioic acid (HA), which gave a higher monomer fraction"}},
  "data": [
    {"molecule": "O=C(O)CCCCCCCCCCCCCCC(=O)O", "note": "[hexadecanedioic acid]", "values": [
      {"measurement": "Kd", "setting": "GDAP1∆295-358", "value": "2000 ± 800", "unit": "nM"},
      {"measurement": "dTm", "setting": "GDAP1∆319-358", "value": "~ 3 °C"}
    ]},
    {"molecule": "GDAP1∆303-358 Y29F (domain or fragment, human, UniProt Q8TB36 1-302, looked up, Point mutant of m2, made by site-directed mutagenesis PCR; source: E. coli BL21 (DE3), purified (Ni-NTA, TEV cleavage, SEC); not shown: His6, N-terminal, cleaved) MAERQEEQRGSPPLRAEGKADAEVKLILFHWTHSFSSQKVRLVIAEKALKCEEHDVSLPLSEHNEPWFMRLNSTGEVPVLIHGENIICEATQIIDYLEQTFLDERTPRLMPDKESMYYPRVQHYRELLDSLPMDAYTHGCILHPELTVDSMIPAYATTRIRSQIGNTESELKKLAEENPDLQEAYIAKQKRLKSKLLDHDNVKYLKKILDELEKVLDQVETELQRRNEETPEEGQQPWLCGESFTLADVSLAVTLHRLKFLGFARRNWGNGKRPNLETYYERVLKRKTFNKVLGHVNNILIS", "values": [
      {"measurement": "stoichiometry N", "setting": "[1]", "value": 2}
    ]},
    {"molecule": "GDAP1∆303-358 (domain or fragment, human, UniProt Q8TB36 1-302, looked up, The constructs were put into pTH27 (N-terminal His6) and pDEST-Trx (N-terminal thioredoxin); Tag cleaved with TEV protease; also called complete human GDAP1 core domain; source: E. coli BL21 (DE3), purified (Ni-NTA, TEV cleavage, SEC); not shown: His6, N-terminal, cleaved) MAERQEEQRGSPPLRAEGKADAEVKLILYHWTHSFSSQKVRLVIAEKALKCEEHDVSLPLSEHNEPWFMRLNSTGEVPVLIHGENIICEATQIIDYLEQTFLDERTPRLMPDKESMYYPRVQHYRELLDSLPMDAYTHGCILHPELTVDSMIPAYATTRIRSQIGNTESELKKLAEENPDLQEAYIAKQKRLKSKLLDHDNVKYLKKILDELEKVLDQVETELQRRNEETPEEGQQPWLCGESFTLADVSLAVTLHRLKFLGFARRNWGNGKRPNLETYYERVLKRKTFNKVLGHVNNILIS", "values": [
      {"measurement": "stoichiometry N", "setting": "[2]", "value": 2}
    ]},
    {"molecule": "GDAP1∆295-358 (domain or fragment, human, UniProt Q8TB36 1-294, looked up, The constructs were put into pTH27 (N-terminal His6) and pDEST-Trx (N-terminal thioredoxin); also called ganglioside-induced differentiation-associated protein 1, C-terminally truncated; GDAP1 core domain; source: E. coli BL21 (DE3), purified (Ni-NTA, TEV cleavage, SEC); not shown: His6, N-terminal, cleaved) MAERQEEQRGSPPLRAEGKADAEVKLILYHWTHSFSSQKVRLVIAEKALKCEEHDVSLPLSEHNEPWFMRLNSTGEVPVLIHGENIICEATQIIDYLEQTFLDERTPRLMPDKESMYYPRVQHYRELLDSLPMDAYTHGCILHPELTVDSMIPAYATTRIRSQIGNTESELKKLAEENPDLQEAYIAKQKRLKSKLLDHDNVKYLKKILDELEKVLDQVETELQRRNEETPEEGQQPWLCGESFTLADVSLAVTLHRLKFLGFARRNWGNGKRPNLETYYERVLKRKTFNKVLG", "values": [
      {"measurement": "stoichiometry N", "setting": "[3]", "value": 2}
    ]},
    {"molecule": "GDAP1∆319-358 (domain or fragment, human, UniProt Q8TB36 1-318, looked up, The constructs were put into pTH27 (N-terminal His6) and pDEST-Trx (N-terminal thioredoxin); Tag cleaved with TEV protease; also called ganglioside-induced differentiation-associated protein 1, C-terminally truncated; source: E. coli BL21 (DE3), purified (Ni-NTA, TEV cleavage, SEC); not shown: His6, N-terminal, cleaved) MAERQEEQRGSPPLRAEGKADAEVKLILYHWTHSFSSQKVRLVIAEKALKCEEHDVSLPLSEHNEPWFMRLNSTGEVPVLIHGENIICEATQIIDYLEQTFLDERTPRLMPDKESMYYPRVQHYRELLDSLPMDAYTHGCILHPELTVDSMIPAYATTRIRSQIGNTESELKKLAEENPDLQEAYIAKQKRLKSKLLDHDNVKYLKKILDELEKVLDQVETELQRRNEETPEEGQQPWLCGESFTLADVSLAVTLHRLKFLGFARRNWGNGKRPNLETYYERVLKRKTFNKVLGHVNNILISAVLPTAFRVAKKRAPK", "values": [
      {"measurement": "stoichiometry N", "setting": "[3]", "value": 2}
    ]}
  ]
}
